These results are taken from article PMC3017119, “Structural Basis for the Recognition of Cellular mRNA Export Factor REF by Herpes Viral Proteins HSV-1 ICP27 and HVS ORF57” (PLoS Pathogens, 2011).

The labels stand for the following.
B2: REF^54–155 (recombinant, for NMR) (domain or fragment)
chain: not shown
notes: 15N- or 13C/15N-labelled or unlabelled, by experiment; also called Δ53N
B4: HVS ORF57^8–120 (recombinant, for NMR) (domain or fragment)
chain: GISSDDDFDSSDSSSDEEESDTSPQIMKSDVTMASPPSTPEPSPDVSASTSNLKRERQRSPITWEHQSPLSRVYRSPSPMRFGKRPRISSNSTSRSCKTSWADRVREAAAQRR
B6: ICP27^1–138 (recombinant, for NMR) (domain or fragment)
chain: MATDIDMLIDLGLDLSDSDLDEDPPEPAESRRDDLESDSSGECSSSDEDMEDPHGEDGPEPILDAARPAVRPSRPEDPGVPSTQTPRPTERQGPNDPQPAPHSVWSRLGARRPSCSPEQHGGKVARLQPPPTKAQPAR
notes: HSV-1 ICP27, residues 1-138

What all share (details): both partners purified
Experiment [1] addresses B2. Briefly: NMR titration; […]; 30°C; […], pH 6.2.
Experiment [2] concerns the target B6. Briefly: NMR titration.
The target in a further experiment is T1, HVS ORF57^103–120 V112A (Herpesvirus Saimiri, V112A (stands in the printed letters)).
T1 construct: source: synthetic peptide (Peptide Protein Research Ltd)
Briefly: NMR titration; […]; 30°C; […], pH 6.2.

The next experiment concerns the target T2, ICP27^103–112 W105A (Herpes simplex virus 1, W105A (stands in the printed letters)).
T2 construct: also called mutant peptide W105A; source: synthetic peptide (Peptide Protein Research Ltd)
Kind of experiment: NMR titration; […]; 30°C; […], pH 6.2.

In another experiment the target is T3, HVS ORF57^103–120 R111A (Herpesvirus Saimiri, R111A (stands in the printed letters)).
T3 construct: source: synthetic peptide (Peptide Protein Research Ltd)
Briefly: NMR titration; […]; 30°C; […], pH 6.2.

Another experiment deals with T4, ICP27^103–112 L108A (Herpes simplex virus 1, L108A (stands in the printed letters)).
T4 construct: source: synthetic peptide (Peptide Protein Research Ltd)
Kind of experiment: NMR titration; […]; 30°C; […], pH 6.2.

Experiment [3] deals with B4. Kind of experiment: NMR titration; […]; 30°C; […], pH 6.2.
A further experiment deals with T5, HVS ORF57^103–120 W108A (Herpesvirus Saimiri, W108A (stands in the printed letters)).
T5 construct: source: synthetic peptide (Peptide Protein Research Ltd)
Kind of experiment: NMR titration; […]; 30°C; […], pH 6.2.

A further experiment deals with T6, ICP27^103–112 R107A (Herpes simplex virus 1, R107A (stands in the printed letters)).
T6 construct: source: synthetic peptide (Peptide Protein Research Ltd)
Briefly: NMR titration; […]; 30°C; […], pH 6.2.

Experiment [4] deals with REF^1–155 (recombinant, for NMR) (murine, UniProt Q9JJW6 1-155). Briefly: NMR titration.

B1: HVS ORF57^103–120 (peptide)
peptide: SCKTSWADRVREAAAQRR
notes: also called WT HVS-ORF57^103–120; source: synthetic peptide (Peptide Protein Research Ltd)
Turning to B1, the Kd – broadly, the concentration at which binding is half-saturated – in experiment [1] was determined as 45 ± 15 µM.

Turning to B2, the binding result in experiment [2] was “binds”. Further, the Kd in the experiment with HVS ORF57^103–120 V112A was 156 ± 32 µM; with ICP27^103–112 W105A, 550 ± 210 µM; in the experiment with HVS ORF57^103–120 R111A it was 254 ± 50 µM; in the experiment with ICP27^103–112 L108A it was more than 5 mM; in [3] it was 78 ± 12 µM; with HVS ORF57^103–120 W108A it was more than 7.5 mM. Moreover, the Kd in the experiment with ICP27^103–112 R107A is more than 10 mM.

B3: KSHV ORF57^100–110 (peptide)
peptide: NRYGKKIKFGT
notes: also called KSHV-ORF57^100–110 peptide; source: synthetic peptide (Peptide Protein Research Ltd)
Regarding B3, the Kd in [1] is more than 100000 µM.

Take B4: in [4], the binding result is “binds”.

B5: HVS ORF57^105–115 (peptide)
peptide: KTSWADRVREA
notes: also called WT HVS-ORF57^105–115; WT-ORF57^105–115; source: synthetic peptide (Peptide Protein Research Ltd)
B5: the Kd in experiment [1] is more than 1000 µM.

For B6, the binding result in experiment [4] is “binds”.

B7: ICP27^103–138 (peptide)
chain: GPLGSVWSRLGARRPSCSPEQHGGKVARLQPPPTKAQPAR
notes: remainder of the PreScission protease cleavage site; HSV-1 ICP27, residues 103-138; also called WT-ICP27^103–138; ICP27^103–138 WT peptide; source: expressed as GST-fusion from pGEX-6P-1, cleaved by PreScission protease on GSH resin, purified (Sephacryl S-100 HR); not shown: GST, N-terminal, cleaved
As for B7, in [1], the Kd came out at 28 ± 8.7 µM.

B8: ICP27^103–138 S114E (peptide)
chain: GPLGSVWSRLGARRPECSPEQHGGKVARLQPPPTKAQPAR
notes: remainder of the PreScission protease cleavage site; HSV-1 ICP27, residues 103-138 with S114E (mimic of phosphoserine 114); source: expressed as GST-fusion from pGEX-6P-1, cleaved by PreScission protease on GSH resin, purified (Sephacryl S-100 HR); not shown: GST, N-terminal, cleaved
For B8, in experiment [1], the equilibrium dissociation constant (Kd) was found to be 17 ± 7.9 µM.

B9: ICP27^103–112 (peptide)
peptide: SVWSRLGARR
notes: HSV-1 ICP27, residues 103-112; the dash in the printed line is an alignment gap; also called WT ICP27^103–112 peptide; source: synthetic peptide (Peptide Protein Research Ltd)
Turning to B9, the dissociation constant (Kd) in [1] turned out to be 99 ± 30 µM.

B10: ICP27^103–110 (peptide)
peptide: SVWSRLGA
notes: HSV-1 ICP27, residues 103-110; the dash in the printed line is an alignment gap; also called WT ICP27^103–110 peptide; source: synthetic peptide (Peptide Protein Research Ltd)
On to B10, for which, in experiment [1], the Kd was found to be 25 ± 7 µM.

B11: VZV ORF4^108–119 (peptide)
peptide: TGYARIERGHRR
notes: also called VZV-ORF4^108–119 peptide; source: synthetic peptide (Peptide Protein Research Ltd)
Take B11: the Kd in [1] is more than 1000 µM.
